Among the data in US20190071480A1 (Biogen, published 2019) are Kd values, retold here.

Broadly, the Kd is the free concentration of one partner at which half of the binding sites on the other are occupied at equilibrium, for simple one-to-one binding.

Assay [1] addresses T1, extracellular domain of activin receptor type IIB (ActRIIBecd), biotinylated (Homo sapiens (Human), UniProt Q13705 27-117, amino-biotinylated with amine-PEG3-Biotin).
T1 construct: immobilised on a streptavidin-coated sensor chip; also called biotinylated ActRIIBecd; extracellular domain of ActRIIB
T1 sequence: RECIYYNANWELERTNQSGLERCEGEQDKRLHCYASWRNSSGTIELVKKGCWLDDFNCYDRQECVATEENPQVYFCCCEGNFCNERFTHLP
The experiment in a line: BIAcore SPR, biotinylated ActRIIBecd on chip; SD ±18.12 nM. As to the method: (§1) Biosensor experiments. In one embodiment, experiments were performed on a BIAcore™ T100/T200 instrument (Pharmacia Biosensor AB) in the multichannel mode (serial flow path involving flow cells 1+2+3+4). Flow rate was 10 μl/min; temperature was 25° C.; and data were recorded at 2.5 points/s. All four segments of a sensor chip CMS were coated with streptavidin (Sigma) to a density of 2000 pg/mm² (2000 resonance units) by the aminocoupling procedure. ActRIIBecd (10 mg) and amine-PEG3-Biotin (10 mg, Pierce, Rockford, Ill.) were dissolved in 200 μl H₂O and 10 mg NaCNBH₃ was added to prepare biotinylated ActRIIBecd. The reaction mixture was heated at 70° C. for 24 h, after that a further 10 mg NaCNBH₃ was added and the reaction was heated at 70° C. for another 24 h. After cooling to room temperature, the mixture was desalted with the spin column (3,000 molecular weight cut off (MWCO)). […] Sensograms were recorded during flow of the analyte (the ActRIIBecd-associated polypeptides (i.e., domains) as previously described) first through flow cell 1 (control) then through flow cell 2 (biotinylated ActRIIBecd). […] The sensograms obtained at 1.11, 3.33, 10, 30, and 90 nM analyte were evaluated for equilibrium binding, association rate, and dissociation rate by using the programs supplied with the instrument (BIA evaluation 2.1; Software Handbook. 1995; Pharmacia Biosensor AB).

Assay [2] deals with T1, extracellular domain of activin …. Put plainly: BIAcore SPR as Example 5 (method not restated); SD ±1.13 nM. On the procedure: as §1
Assay [3] has the same target. The experiment in a line: Mean KD column of Table 5; method not restated (BIAcore as Example 5); species also listed in Table 4. In short, it runs like this:
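On a chip first coated with amine-coupled streptavidin (about 2000 RU), the biotin-conjugated receptor ectodomain was bound to 50-250 RU. Polypeptide solutions (1.11-90 nM, glycine buffer pH 4.5) passed over it at 10 μl/min and 25° C, and the resulting traces gave association rate, dissociation rate and equilibrium binding.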
In general terms: In SPR one partner is held on a chip, and binding of the other changes the refractive index at the surface.

For assay [4] the target is unchanged. Put plainly: BIAcore SPR as Example 5 (method not restated); SD ±1.76 nM. On the procedure:
as §1

Assay [5] has the same target. The experiment in a line: BIAcore SPR as Example 5 (method not restated); SD ±1.60 nM. As to the method:
as §1

For assay [6] the target is unchanged. The experiment in a line: BIAcore SPR as Example 5 (method not restated); SD ±1.05 nM. As to the method:
as §1

For assay [7] the target is unchanged. Put plainly: BIAcore SPR as Example 5 (method not restated); SD ±1.38 nM. On the procedure: as §1
Assay [8] shares this target. The experiment in a line: BIAcore SPR as Example 5 (method not restated); SD ±2.35 nM. On the procedure: as §1
Assay [9] shares this target. The experiment in a line: BIAcore SPR as Example 5 (method not restated); SD ±1.32 nM. As to the method:
as §1

The target is the same in assay [10]. The experiment in a line: BIAcore SPR as Example 5 (method not restated); SD ±2.08 nM. On the procedure:
as §1

Assay [11] shares this target. Put plainly: BIAcore SPR as Example 5 (method not restated); SD ±2.71 nM. As to the method: as §1
Assay [12] shares this target. Put plainly: BIAcore SPR as Example 5 (method not restated); SD ±0.75 nM. On the procedure:
as §1

Assay [13] shares this target. Put plainly: BIAcore SPR as Example 5 (method not restated); SD ±0.67 nM. On the procedure: as §1
Assay [14] shares this target. The experiment in a line: BIAcore SPR as Example 5 (method not restated); SD ±1.30 nM. On the procedure:
as §1

For assay [15] the target is unchanged. Put plainly: BIAcore SPR as Example 5 (method not restated); SD ±3.57 nM. As to the method:
as §1

For assay [16] the target is unchanged. The experiment in a line: BIAcore SPR as Example 5 (method not restated); SD ±2.66 nM. As to the method:
as §1

In assay [1], VDFSDVGWNDWAVAPPGYHAFYCHGECPFPLADHLNSDNHAIVQTLVNSV [Clone No. 16 domain (ActRIIBecd-associated polypeptide)] displayed a Kd of 56 nM.

B1: SEQ ID NO: 284, cysteine pairs C59-C59^b, C8-C41^a, C9-C43^a, C88-C92^a (designed binder)
chain: NSKIPKACCVPTELSAISMLYLDENEKVVLKNYQDMVVEGCGCRAQAKHKQRKRLKSSCKRHPLYVDFSDVGWNDWIVAPPGYHAFYCHGECPFPLADHLNSTNHAIVQTLVNSV
modifications: disulfides C59-C59 (inter), C8-C41 (intra), C9-C43 (intra), C88-C92 (intra)
notes: homodimer by intermolecular disulfide
For B1, the Kd in assay [2] and in assay [3] was 4.89 nM in each case.

B2: SEQ ID NO: 284, cysteine pairs C59-C59^b, C8-C41^b, C9-C43^b, C88-C92^a (designed binder)
chain: NSKIPKACCVPTELSAISMLYLDENEKVVLKNYQDMVVEGCGCRAQAKHKQRKRLKSSCKRHPLYVDFSDVGWNDWIVAPPGYHAFYCHGECPFPLADHLNSTNHAIVQTLVNSV
modifications: disulfides C59-C59 (inter), C8-C41 (inter), C9-C43 (inter), C88-C92 (intra)
notes: as for B1
Turning to B2, the Kd in assay [3] and in assay [4] was 5.79 nM in each case.

B3: SEQ ID NO: 276, cysteine pairs C67-C71^a, C8-C41^a, C9-C43^a, C109-C109^b (designed binder)
chain: NSKIPKACCVPTELSAISMLYLDENEKVVLKNYQDMVVEGCGCRVDFSDVGWNDWIVAPPGYHAFYCHGECPFPLADHLNSTNHAIVQTLVNSVAQAKHKQRKRLKSSCKRHPLY
modifications: disulfides C67-C71 (intra), C8-C41 (intra), C9-C43 (intra), C109-C109 (inter)
notes: as for B1
B3: the Kd in assay [3] and in assay [5] was 5.71 nM each time.

B4: SEQ ID NO: 276, cysteine pairs C67-C71^a, C8-C43^a, C9-C41^a, C109-C109^b (designed binder)
chain: NSKIPKACCVPTELSAISMLYLDENEKVVLKNYQDMVVEGCGCRVDFSDVGWNDWIVAPPGYHAFYCHGECPFPLADHLNSTNHAIVQTLVNSVAQAKHKQRKRLKSSCKRHPLY
modifications: disulfides C67-C71 (intra), C8-C43 (intra), C9-C41 (intra), C109-C109 (inter)
notes: as for B1
Consider B4, for which the dissociation constant (Kd) in [6] and in assay [3] was 7.66 nM each time.

B5: SEQ ID NO: 276, cysteine pairs C67-C71^a, C8-C43^b, C9-C41^b, C109-C109^b (designed binder)
chain: NSKIPKACCVPTELSAISMLYLDENEKVVLKNYQDMVVEGCGCRVDFSDVGWNDWIVAPPGYHAFYCHGECPFPLADHLNSTNHAIVQTLVNSVAQAKHKQRKRLKSSCKRHPLY
modifications: disulfides C67-C71 (intra), C8-C43 (inter), C9-C41 (inter), C109-C109 (inter)
notes: as for B1
Regarding B5, the equilibrium dissociation constant (Kd) in assay [7] and in [3] was 6.31 nM each time.

B6: SEQ ID NO: 276, cysteine pairs C8-C9^a (designed binder)
chain: NSKIPKACCVPTELSAISMLYLDENEKVVLKNYQDMVVEGCGCRVDFSDVGWNDWIVAPPGYHAFYCHGECPFPLADHLNSTNHAIVQTLVNSVAQAKHKQRKRLKSSCKRHPLY
modifications: disulfides C8-C9 (intra)
On to B6, for which the Kd in assay [8] and in assay [3] was 27.9 nM throughout.

B7: SEQ ID NO: 268, cysteine pairs C23-C27^a, C65-C65^b, C79-C112^a, C80-C114^a (designed binder)
chain: VDFSDVGWNDWIVAPPGYHAFYCHGECPFPLADHLNSTNHAIVQTLVNSVAQAKHKQRKRLKSSCKRHPLYNSKIPKACCVPTELSAISMLYLDENEKVVLKNYQDMVVEGCGCR
modifications: disulfides C23-C27 (intra), C65-C65 (inter), C79-C112 (intra), C80-C114 (intra)
notes: as for B1
Consider B7, for which the Kd in assay [9] and in assay [3] was 7.21 nM throughout.

B8: SEQ ID NO: 268, cysteine pairs C23-C27^a, C65-C65^b, C79-C114^a, C80-C112^a (designed binder)
chain: VDFSDVGWNDWIVAPPGYHAFYCHGECPFPLADHLNSTNHAIVQTLVNSVAQAKHKQRKRLKSSCKRHPLYNSKIPKACCVPTELSAISMLYLDENEKVVLKNYQDMVVEGCGCR
modifications: disulfides C23-C27 (intra), C65-C65 (inter), C79-C114 (intra), C80-C112 (intra)
notes: as for B1
As for B8, the Kd in assay [10] and in assay [3] was 8.74 nM each time.

B9: SEQ ID NO: 268, cysteine pairs C23-C79^a (designed binder)
chain: VDFSDVGWNDWIVAPPGYHAFYCHGECPFPLADHLNSTNHAIVQTLVNSVAQAKHKQRKRLKSSCKRHPLYNSKIPKACCVPTELSAISMLYLDENEKVVLKNYQDMVVEGCGCR
modifications: disulfides C23-C79 (intra)
With B9, the Kd in assay [3] and in assay [11] was 29.6 nM in each case.

B10: SEQ ID NO: 268, cysteine pairs C23-C27^a, C65-C65^b, C79-C112^b, C80-C114^b (designed binder)
chain: VDFSDVGWNDWIVAPPGYHAFYCHGECPFPLADHLNSTNHAIVQTLVNSVAQAKHKQRKRLKSSCKRHPLYNSKIPKACCVPTELSAISMLYLDENEKVVLKNYQDMVVEGCGCR
modifications: disulfides C23-C27 (intra), C65-C65 (inter), C79-C112 (inter), C80-C114 (inter)
notes: as for B1
Take B10: the Kd in assay [12] and in [3] was 7.96 nM in each case.

B11: SEQ ID NO: 292, cysteine pairs C15-C80^a, C44-C112^a, C48-C114^a, C79-C79^b (designed binder)
chain: GQAKRKGYKRLKSSCKRHPLYVDFKDVGWNDHAVAPPGYHAFYCHGECPFPLADHLNSDNHAIVQTKVNSVNSKDPKACCVPTELSAPSPLYLDENEKPVLKNYQDMVVHGCGCR
modifications: disulfides C15-C80 (intra), C44-C112 (intra), C48-C114 (intra), C79-C79 (inter)
notes: as for B1
B11: the Kd in assay [13] and in [3] was 4.77 nM in each case.

B12: SEQ ID NO: 292, cysteine pairs C80-C114^b, C79-C112^b, C44-C48^a (designed binder)
chain: GQAKRKGYKRLKSSCKRHPLYVDFKDVGWNDHAVAPPGYHAFYCHGECPFPLADHLNSDNHAIVQTKVNSVNSKDPKACCVPTELSAPSPLYLDENEKPVLKNYQDMVVHGCGCR
modifications: disulfides C80-C114 (inter), C79-C112 (inter), C44-C48 (intra)
notes: as for B1
On to B12, for which the Kd in assay [14] and in [3] was 5.54 nM each time.

B13: SEQ ID NO: 292, cysteine pairs C15-C15^b, C79-C114^a, C80-C112^a, C44-C48^a (designed binder)
chain: GQAKRKGYKRLKSSCKRHPLYVDFKDVGWNDHAVAPPGYHAFYCHGECPFPLADHLNSDNHAIVQTKVNSVNSKDPKACCVPTELSAPSPLYLDENEKPVLKNYQDMVVHGCGCR
modifications: disulfides C15-C15 (inter), C79-C114 (intra), C80-C112 (intra), C44-C48 (intra)
notes: as for B1
For B13, the Kd in [15] and in assay [3] was 5.81 nM throughout.

B14: SEQ ID NO: 292, cysteine pairs C79-C80^a (designed binder)
chain: GQAKRKGYKRLKSSCKRHPLYVDFKDVGWNDHAVAPPGYHAFYCHGECPFPLADHLNSDNHAIVQTKVNSVNSKDPKACCVPTELSAPSPLYLDENEKPVLKNYQDMVVHGCGCR
modifications: disulfides C79-C80 (intra)
As for B14, the Kd in [16] and in assay [3] was 29 nM in each case.
